The source of these data is patent US20210155918A1.

The target of assay [1] is rPro^ΔSLQ, recombinant human prothrombin with amino acids Ser^478/Leu^480/Gln^481 deleted (human) (UniProt P00734).
Assay [2] concerns the target rPro^Δ473-487, recombinant human prothrombin with region 473-487 deleted (human) (UniProt P00734).
Assay [3] has as its target rPro^ΔN10, recombinant human prothrombin missing amino acids … (human) (UniProt P00734).
For assay [4], the target named is rPro^ΔS5V, recombinant human prothrombin with region SVLQV deleted (human) (UniProt P00734).
Assay [5] concerns the target rPro^ΔC10, recombinant human prothrombin missing amino acids … (human) (UniProt P00734).

Take “prothrombinase (from UniProt P00742) (enzyme)”: the Km of prothrombinase for rPro activation in assay [1] was determined as 3.2 µM. The kcat/Km of prothrombinase for rPro activation (IIa generation, chromogenic substrate) in assay [1] was 670000 M⁻¹ s⁻¹. Besides, the Rate of Pro molecules cleavage by prothrombinase (nM consumed · s^-1 · fXa^-1) in assay [2] was determined as 1; in assay [3], 1.5; in assay [4], 1.8.

For “Human fXa (from UniProt P00742) (enzyme)”, the Rate of Pro molecules cleavage by membrane-bound fXa alone (nM consumed · s^-1 · fXa^-1) was 0.53 in assay [2], 0.7 in assay [3], 0.8 in assay [4] and 0.35 in assay [5].
